Results on five molecules are retold here after US20120134993A1 (ZymoGenetics, published 2012).

First the molecules themselves.
B1: FGFR3IIIc(143-375)(S249W) Fc5, truncated FGFR3-Fc S249W (A2258F) (Fc fusion)
chain: DTGVDTGAPYWTRPERMDKKLLAVPAANTVRFRCPAAGNPTPSISWLKNGREFRGEHRIGGIKLRHQQWSLVMESVVPSDRGNYTCVVENKFGSIRQTYTLDVLERWPHRPILQAGLPANQTAVLGSDVEFHCKVYSDAQPHIQWLKHVEVNGSKVGPDGTPYVTVLKTAGANTTDKELEVLSLHNVTFEDAGEYTCLAGNSIGFSHHSAWLVVLPAEEELVEADEAGSVYAGEPKSSDKTHTCPPCPAPEAEGAPSVFLFPPKPKDTLMISRTPEVTCVVVDVSHEDPEVKFNWYVDGVEVHNAKTKPREEQYNSTYRVVSVLTVLHQDWLNGKEYKCKVSNKALPSSIEKTISKAKGQPREPQVYTLPPSRDELTKNQVSLTCLVKGFYPSDIAVEWESNGQPENNYKTTPPVLDSDGSFFLYSKLTVDKSRWQQGNVFSCSVMHEALHNHYTQKSLSLSPGK
notes: also called FGFR3 A2258F; FGFR3A2258F
B2: FGFR3IIIc(23-375)(S249W) Fc5, full-length FGFR3-Fc S249W (A2256F) (Fc fusion)
chain: ESLGTEQRVVGRAAEVPGPEPGQQEQLVFGSGDAVELSCPPPGGGPMGPTVWVKDGTGLVPSERVLVGPQRLQVLNASHEDSGAYSCRQRLTQRVLCHFSVRVTDAPSSGDDEDGEDEAEDTGVDTGAPYWTRPERMDKKLLAVPAANTVRFRCPAAGNPTPSISWLKNGREFRGEHRIGGIKLRHQQWSLVMESVVPSDRGNYTCVVENKFGSIRQTYTLDVLERWPHRPILQAGLPANQTAVLGSDVEFHCKVYSDAQPHIQWLKHVEVNGSKVGPDGTPYVTVLKTAGANTTDKELEVLSLHNVTFEDAGEYTCLAGNSIGFSHHSAWLVVLPAEEELVEADEAGSVYAGEPKSSDKTHTCPPCPAPEAEGAPSVFLFPPKPKDTLMISRTPEVTCVVVDVSHEDPEVKFNWYVDGVEVHNAKTKPREEQYNSTYRVVSVLTVLHQDWLNGKEYKCKVSNKALPSSIEKTISKAKGQPREPQVYTLPPSRDELTKNQVSLTCLVKGFYPSDIAVEWESNGQPENNYKTTPPVLDSDGSFFLYSKLTVDKSRWQQGNVFSCSVMHEALHNHYTQKSLSLSPGK
notes: also called FGFR3 A2256F; FGFR3A2256F
B3: recombinant human FGF-17 (ligand, UniProt O60258 23-216, looked up)
chain: TQGENHPSPNFNQYVRDQGAMTDQLSRRQIREYQLYSRTSGKHVQVTGRRISATAEDGNKFAKLIVETDTFGSRVRIKGAESEKYICMNKRGKLIGKPSGKSKDCVFTEIVLENNYTAFQNARHEGWFMAFTRQGRPRQASRSRQNQREAHFIKRLYQGQLPFPNHAEKQKQFEFVGSAPTRRTKRTRRPQPLT
B4: FGFR2alphaIIIc(145-377) Fc5, truncated FGFR2-Fc (A2559F) (Fc fusion)
chain: SENSNNKRAPYWTNTEKMEKRLHAVPAANTVKFRCPAGGNPMPTMRWLKNGKEFKQEHRIGGYKVRNQHWSLIMESVVPSDKGNYTCVVENEYGSINHTYHLDVVERSPHRPILQAGLPANASTVVGGDVEFVCKVYSDAQPHIQWIKHVEKNGSKYGPDGLPYLKVLKAAGVNTTDKEIEVLYIRNVTFEDAGEYTCLAGNSIGISFHSAWLTVLPAPGREKEITASPDYLEEPKSSDKTHTCPPCPAPEAEGAPSVFLFPPKPKDTLMISRTPEVTCVVVDVSHEDPEVKFNWYVDGVEVHNAKTKPREEQYNSTYRVVSVLTVLHQDWLNGKEYKCKVSNKALPSSIEKTISKAKGQPREPQVYTLPPSRDELTKNQVSLTCLVKGFYPSDIAVEWESNGQPENNYKTTPPVLDSDGSFFLYSKLTVDKSRWQQGNVFSCSVMHEALHNHYTQKSLSLSPGK
notes: also called FGFR2A2559F; FGFR2 A2559F
B5: FGFR2alphaIIIc(145-377)(P253R) Fc5, truncated FGFR2-Fc P253R (A2561F) (Fc fusion)
chain: B4 chain with P109R
notes: also called FGFR2 A2561F; construct #1950

The target in assay [1] is T1, recombinant human FGF-8b (human, UniProt P55075-3 23-215).
T1 sequence (looked up): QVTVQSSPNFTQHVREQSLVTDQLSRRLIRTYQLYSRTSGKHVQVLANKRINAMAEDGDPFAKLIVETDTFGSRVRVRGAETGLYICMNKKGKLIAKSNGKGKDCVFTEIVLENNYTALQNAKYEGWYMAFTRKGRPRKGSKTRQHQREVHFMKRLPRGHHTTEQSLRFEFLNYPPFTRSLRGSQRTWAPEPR
The assay is described as follows: direct binding ELISA, FGF-8b coated, FGFR-Fc titrated with heparin, anti-human Fc-HRP. On the procedure:
(§1) To determine the binding capability of FGFR-Fc to their respective ligands, an ELISA was run. Recombinant human FGF-8b or FGF-17 (R&D Systems) was plated at 100 nM on a Nunc Maxisorp 96-well plate for 1 h at room temperature with shaking. The plates were blocked with BLOTTO (Thermo Fisher Scientific, Rockford, Ill.) for 1 h at room temperature, then washed 5 times with ELISA C buffer (137 mM NaCl, 2.7 mM KCl, 7.2 mM Na₂HPO₄, 1.5 mM KH₂PO₄, 0.05% (v/w) polysorbate 20, pH 7.2). FGFR-Fcs were diluted to 100 nM with PBS/0.1×BLOTTO/10 ug/ml porcine heparin (Sigma, St. Louis, Mo.) and then 1:2 serial dilutions were made, ending at 0.10 nM. 100 μL of FGFR-Fcs were plated and incubated at 4° C. overnight. The following day, the plates were washed 5 times with ELISA C and then incubated with 2.5 μg/mL horseradish peroxidase-conjugated anti-human Fc antibody (Jackson ImmunoResearch Laboratories, West Grove, Pa.) for 1 h at room temperature with shaking. After 5 washes with ELISA C, 100 μL of OPD in citrate buffer (5 mg of o-phenylenediamine in 63 mM sodium citrate, 37 mM citric acid, pH 5.0, 0.03% H₂O₂) was added for detection. After 2-5 minutes, the reaction was stopped with 1 N H₂SO₄. The plates were read at 490 nm using SoftMaxPro software.

For assay [2], the target named is T2, recombinant human FGF6 (human, UniProt P10767 83-208, limits assumed).
T2 sequence (looked up): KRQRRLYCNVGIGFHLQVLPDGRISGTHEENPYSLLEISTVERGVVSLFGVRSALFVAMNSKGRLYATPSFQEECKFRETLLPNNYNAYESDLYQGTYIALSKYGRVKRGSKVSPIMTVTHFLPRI
Kind of assay: SPR (Biacore T100), FGFR-Fc captured on protein A, FGF6 analyte with heparin, bivalent analyte model (KA1). On the procedure: (§2) Materials and Methods: Binding kinetics and affinity studies were performed on a Biacore T100™ system (GE Healthcare, Piscataway, N.J.). Methods for the Biacore T100™ were programmed using Biacore T100™ Control Software, v 2.0. Since each of the FGF receptor molecules contained a human Fc domain, biotinylated protein-A (Thermo Fisher Scientific Inc, Rockford, Ill.) was used as a capture reagent for these studies. Biotinylated protein-A was diluted to concentration of 50 μg/mL in HBS-EP buffer (10 mM HEPES, 150 mM NaCl, 3 mM EDTA, 0.05% Surfactant P20; GE Healthcare, Piscataway, N.J.), and then captured to all four flow cells of a SA (streptavidin) sensor chip. A density of approximately 1100 RU was obtained for each flow cell. Each FGF receptor molecule was subsequently captured via protein-A onto a separate flow cell of the SA chip at an approximate density of 150-250 RU. The Biacore instrument measures the mass of protein bound to the sensor chip surface, and thus, capture of the receptor was verified for each cycle.
(§3) For kinetic binding studies, serial 1:5 dilutions of FGF ligands were prepared from 200 nM-0.06 nM. These samples were injected over the surface and allowed to specifically bind to the FGF receptor captured on the sensor chip. Injections of each ligand concentration were performed with an association time of 7 minutes and dissociation time of 15 minutes. Kinetic binding studies were performed with a flow rate of 50 μL/min. All binding experiments were performed at 25° C. in HBS-P buffer (10 mM HEPES, 150 mM NaCl, 0.05% Surfactant P20, pH 7.4; GE Healthcare, Piscataway, N.J.), containing 50 μg/mL heparin (Calbiochem, La Jolla, Calif.).
(§4) Between cycles, the flow cell was washed with 20 mM hydrochloric acid to regenerate the surface. This wash step removed both the captured FGF receptor and any bound FGF ligand from the protein-A surface, and allowed for the subsequent binding of the next test sample. Data was compiled using the Biacore T100™ Evaluation software (version 2.0). Data was processed by subtracting reference flow cell and blank injections. Baseline stability was assessed to ensure that the regeneration step provided a consistent binding surface throughout the sequence of injections. Duplicate injection curves were checked for reproducibility. Binding curves were globally fit to the bivalent analyte model.

The target of assay [3] is T2, recombinant human FGF6. Kind of assay: SPR (Biacore T100), FGFR-Fc captured on protein A, FGF6 analyte with heparin, bivalent analyte model (ka1). As to the method:
as §2, §3, §4
(In SPR one partner is held on a chip, and binding of the other changes the refractive index at the surface.)

Assay [4] addresses T2, recombinant human FGF6. The assay is described as follows: SPR (Biacore T100), FGFR-Fc captured on protein A, FGF6 analyte with heparin, bivalent analyte model (kd1). On the procedure:
as §2, §3, §4

Another assay concerns the target human FGF-9 (human, UniProt P31371 4-208). Kind of assay: cell-based or functional assay.
In assay [5] the target is T2, recombinant human FGF6. The assay is described as follows: SPR (Biacore T100), FGFR-Fc captured on protein A, FGF6 analyte with heparin, bivalent analyte model (KD1). On the procedure:
as §2, §3, §4

Assay [6] deals with B3. The assay is described as follows: direct binding ELISA, FGF-17 coated, FGFR-Fc titrated with heparin, anti-human Fc-HRP. As to the method: as §1
Assay [7] has as its target T1, recombinant human FGF-8b. Kind of assay: cell-based or functional assay.
Assay [8] has as its target T2, recombinant human FGF6. The assay is described as follows: cell-based or functional assay.
The next assay deals with recombinant human FGF1 (human, UniProt P05230 16-155). The assay is described as follows: cell-based or functional assay.
The next assay deals with recombinant human FGF2 (human, UniProt P09038 143-288, limits assumed). The assay is described as follows: cell-based or functional assay.
In a further assay the target is T3, recombinant human FGF4 (human, UniProt P08620 31-206, limits assumed).
T3 sequence (looked up): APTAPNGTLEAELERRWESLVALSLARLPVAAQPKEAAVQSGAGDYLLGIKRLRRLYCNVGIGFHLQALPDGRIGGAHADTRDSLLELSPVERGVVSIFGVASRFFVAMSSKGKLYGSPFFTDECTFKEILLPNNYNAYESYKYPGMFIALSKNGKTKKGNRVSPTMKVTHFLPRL
The assay is described as follows: cell-based or functional assay.

The target in assay [9] is T4, human FGFR4-Fc (R&D Systems) (human, UniProt P22455 22-369).
T4 construct: Bought; also called FGFR4 (R&D systems); R&D FGFR4; not shown: Fc of the commercial fusion; not described
The assay is described as follows: ELISA: FGF-17 coated at 100 nM, FGFR-Fc 100 to 0.10 nM in 1:2 steps with 10 ug/ml heparin, anti-human Fc-HRP, OD 490 nm. As to the method:
as §1
(In general: An ELISA detects its analyte on a solid surface through an enzyme-linked reagent.)

The target of assay [10] is B3. Described as above. As to the method:
as §1

Changes are numbered by the printed parent chain. In names and notes the source's numbering stands.

recombinant human FGF2, sequence (P09038 143-288 limits assumed): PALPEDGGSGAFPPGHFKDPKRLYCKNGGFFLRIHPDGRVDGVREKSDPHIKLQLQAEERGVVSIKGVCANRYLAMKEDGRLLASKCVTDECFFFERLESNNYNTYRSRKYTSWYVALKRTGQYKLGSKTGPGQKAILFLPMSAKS
recombinant human FGF1, sequence (P05230 16-155 limits assumed): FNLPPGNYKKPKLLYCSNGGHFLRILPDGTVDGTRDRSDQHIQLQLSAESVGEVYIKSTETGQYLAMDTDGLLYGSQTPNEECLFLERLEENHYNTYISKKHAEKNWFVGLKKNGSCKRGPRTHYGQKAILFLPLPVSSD

For orientation: IC50 means the point on the concentration scale where inhibition reaches its midpoint. The term kon denotes the second-order rate constant of association. What is called koff is the rate constant with which the complex falls apart. With B1, the IC50 in the assay with recombinant human FGF-8b [1] came out at 10 nM; with recombinant human FGF-17 [6], 1.31 nM. Further, the Ka with recombinant human FGF6 [2] was determined as 5e+08 M⁻¹. In addition, in the assay with recombinant human FGF6 [3], the kon is 300000 M⁻¹ s⁻¹. Moreover, the koff with recombinant human FGF6 [4] was 0.0006 s⁻¹. For the same molecule, the “Proliferation IC50, FGF-9-stimulated HCO osteoblasts (3H-thymidine)” value with human FGF-9 stood at 0.75 nM. In addition, the Kd with recombinant human FGF6 [5] is 2 nM. In the assay with recombinant human FGF-8b [7], the “Proliferation IC50, FGF8b-stimulated LNCap cells (3H-thymidine)” value turned out to be 0.02 nM. In addition, the “IC50, FGF-stimulated HUVEC proliferation (3H-thymidine)” value was found to be 0.78 nM with recombinant human FGF6 [8], 0.55 nM with recombinant human FGF1, 0.67 nM in the assay with recombinant human FGF2 and 0.68 nM in the assay with recombinant human FGF4.

Turning to B2, the IC50 in the assay with recombinant human FGF-8b [1] is 37.7 nM; with recombinant human FGF-17 [6], 8.66 nM. Besides, the Ka with recombinant human FGF6 [2] came out at 1e+09 M⁻¹. For the same molecule, the kon in the assay with recombinant human FGF6 [3] is 600000 M⁻¹ s⁻¹. Moreover, the koff with recombinant human FGF6 [4] stood at 0.0005 s⁻¹. Moreover, in the assay with human FGF-9, the “Proliferation IC50, FGF-9-stimulated HCO osteoblasts (3H-thymidine)” value amounted to 0.84 nM. In addition, in the assay with recombinant human FGF6 [5], the Kd is 0.8 nM. In addition, in the assay with recombinant human FGF-8b [7], the “Proliferation IC50, FGF8b-stimulated LNCap cells (3H-thymidine)” value worked out at 0.01 nM. The “IC50, FGF-stimulated HUVEC proliferation (3H-thymidine)” value in the assay with recombinant human FGF6 [8] is 0.95 nM; with recombinant human FGF1, 0.82 nM; with recombinant human FGF2 it was 1 nM; with recombinant human FGF4, 0.74 nM.

B3: in assay [9], the binding result was “binds”.

With B4, the binding result with recombinant human FGF-17 [10] was “no binding (tested: 100 nM)”.

B5: in the assay with recombinant human FGF-17 [10], the binding result was “no binding (tested: 100 nM)”.
